Measured values taken from patent US20240124585A1 (SUTRO BIOPHARMA, published 2024).
Numbering of substitutions follows the chain as printed.

T1: cynomolgus CD3 epsilon (cynomolgus monkey, UniProt Q95LI5 22-117, limits assumed)
T1 construct: Recombinant protein; also called cyno CD3E
T1 sequence: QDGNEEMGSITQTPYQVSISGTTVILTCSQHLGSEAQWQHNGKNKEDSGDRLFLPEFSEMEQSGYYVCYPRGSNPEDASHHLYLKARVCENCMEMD

T2: EpCAM on NCI-H1975 cells (UniProt P16422 24-314, limits assumed)
T2 sequence (looked up): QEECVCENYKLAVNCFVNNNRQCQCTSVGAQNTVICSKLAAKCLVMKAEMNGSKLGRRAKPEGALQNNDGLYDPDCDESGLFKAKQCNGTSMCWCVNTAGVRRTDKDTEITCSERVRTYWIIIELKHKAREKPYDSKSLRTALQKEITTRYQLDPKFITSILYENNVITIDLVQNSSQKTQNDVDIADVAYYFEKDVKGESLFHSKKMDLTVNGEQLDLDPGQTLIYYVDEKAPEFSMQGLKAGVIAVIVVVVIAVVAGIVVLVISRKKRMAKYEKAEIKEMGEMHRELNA

B1: SRP2037:A03 (scFv, not shown: small tags and cut ends)
scFv: EVQLVESGGGLVKPGGSLRLSCAASGFTFSKYAMNWVRQAPGKGLEWVARIRSKYNNYATYYADSVKDRFTISRDDSKNTAYLQINSLKTEDTAVYYCVRHGNFGNSYTSYWAYWGQGTPVTVSSGGGGSGGDGSGGGGSQTVVTQEPSLTVSPGGTVTLTCGSSTGAVTSGYYPNWLQQKPGQAPRGLIGGTKFLAPGTPARFSGSLLGGKAALTLSGVQPEDEAEYYCALWYSNRWVFGGGTQLTVT
notes: tested as scFvFc
B2: SRP2037:A04 (scFv, not shown: small tags and cut ends)
scFv: B1 scFv with S30N, N79S, I85M, V99A, T109I, Y174H, Y234C
notes: tested as scFvFc
B3: SRP2037:A05 (scFv, not shown: small tags and cut ends)
scFv: B1 scFv with S30N, K78R, I85M, T90A, T109I
notes: tested as scFvFc
B4: SMP1913-F09 (antibody, V domains shown)
VH: not shown
VL: QTVVTQEPSLTVSPGGTVTLTCGSSTGAVTSGYYPNWFQQKPGQAPRGLIGGTKFLAPGTPARFSGSLLGGKAALTLSGVQPEDEAEYYCALWYSNRWVFGGGTQLTVTG
notes: human IgG1, lambda; also called hSP34-Hc1 + SP34-Lc3; hSP34-HC1+hSP34-LC3
B5: SMP1913-F10 (antibody, V domains shown)
VH: not shown
VL: QTVVTQEPSFSVSPGGTVTLTCGSSTGAVTSGYYPNWYQQTPGQAPRGLIGGTKFLAPGVPDRFSGSLLGNKAALTITGAQADDESDYYCALWYSNRWVFGGGTQLTVTG
notes: human IgG1, lambda; also called hSP34-Hc1 + SP34-Lc4
B6: SMP1913-G04 (antibody, human IgG1, lambda, V domains shown)
VH: EVQLLESGGGLVQPGGSLRLSCAASGFTFNKYAMNWVRQAPGKGLEWVARIRSKYNNYATYYADSVKDRFTISRDDSKNTAYLQMNSLRAEDTAVYYCVRHGNFGNSYISYWAYWGQGTLVTVSS
VL: B5 VL
notes: human IgG1, lambda; also called hSP34-Hc2 + SP34-Lc4
B7: SMP1913-F05 (antibody, V domains shown)
VH: not shown
VL: B5 VL
notes: human IgG1, lambda; also called SP34-Hc + SP34-Lc4
B8: Mouse SP34 (antibody, V domains shown)
VH: EVQLVESGGGLVQPKGSLKLSCAASGFTFNTYAMNWVRQAPGKGLEWVARIRSKYNNYATYYADSVKDRFTISRDDSQSILYLQMNNLKTEDTAMYYCVRHGNFGNSYVSWFAYWGQGTLVTVSA
VL: QAVVTQESALTTSPGETVTLTCRSSTGAVTTSNYANWVQEKPDHLFTGLIGGTNKRAPGVPARFSGSLIGDKAALTITGAQTEDEAIYFCALWYSNLWVFGGGTKLTVL
notes: also called SP34 mouse monoclonal antibody; MSP34
B9: aEpCAM × hOKT3 (MT110/AMG110) (bispecific antibody)
chain: MELVMTQSPSSLTVTAGEKVTMSCKSSQSLLNSGNQKNYLTWYQQKPGQPPKLLIYWASTRESGVPDRFTGSGSGTDFTLTISSVQAEDLAVYYCQNDYSYPLTFGAGTKLEIKGGGGSGGGGSGGGGSEVQLLEQSGAELVRPGTSVKISCKASGYAFTNYWLGWVKQRPGHGLEWIGDIFPGSGNIHYNEKFKGKATLTADKSSSTAYMQLSSLTFEDSAVYFCARLRNWDEPMDYWGQGTTVTVSSGGGGSDVQLVQSGAEVKKPGASVKVSCKASGYTFTRYTMHWVRQAPGQGLEWIGYINPSRGYTNYADSVKGRFTITTDKSTSTAYMELSSLRSEDTATYYCARYYDDHYCLDYWGQGTTVTVSSGEGTSTGSGGSGGSGGADDIVLTQSPATLSLSPGERATLSCRASQSVSYMNWYQQKPGKAPKRWIYDTSKVASGVPARFSGSGSGTDYSLTINSLEAEDAATYYCQQWSSNPLTFGGGTKVEIK

Columns and labels:
[1] = molecular target: T3, human CD3 on T-cell lines (CD3-expressing Jurkat cells; HUT78 cells) (human, UniProt P07766 23-207); assay: flow cytometry, Jurkat cells
T3 construct: On cells it stands in the CD3/TCR complex
T3 sequence (P07766 23-207 limits assumed): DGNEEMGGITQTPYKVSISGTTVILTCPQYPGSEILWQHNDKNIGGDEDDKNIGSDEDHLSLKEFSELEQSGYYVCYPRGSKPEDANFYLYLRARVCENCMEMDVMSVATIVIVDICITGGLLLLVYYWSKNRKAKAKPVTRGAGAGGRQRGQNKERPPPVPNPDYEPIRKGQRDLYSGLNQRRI

[2] = molecular target: T4, cynomolgus CD3 delta-epsilon heterodimer (Acro Cat #CDD-C52W4) (cynomolgus monkey, UniProt Q95LI8 22-105); assay: single-point ELISA; signal on cyCD3DE over Fc
T4 construct: Bought; also called cyCD3DE
T4 sequence (Q95LI8 22-105, stated change not applied, one chain of several): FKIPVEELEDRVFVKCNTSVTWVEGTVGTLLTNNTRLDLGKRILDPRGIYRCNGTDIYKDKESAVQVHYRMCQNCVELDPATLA
Method: (§1) Following small-scale cell-free protein synthesis (60 μL reactions), each reaction was diluted 1:50 and tested for binding to CD3 protein by ELISA. Briefly, human CD3 delta-epsilon-Fc heterodimer (CD3DE-Fc, Acro Biosystems, Cat #CDD-H52WO), cynomolgus CD3 delta-epsilon heterodimer (CD3DE, Acro Cat #CDD-C52W4) and human IgG1 Fc (Acro Biosystems, Cat #FCC-H5214) were coated to 384-well Maxisorp plates in 0.2M sodium bicarbonate-carbonate pH 9.4 and blocked with […] in PBST (phosphate buffer saline, […], diluted from Teknova Cat #P2192). Antibodies expressed in CF were diluted 1:50 in 0.20% BSA in PBST and were incubated on the […] plates, washed, and detected with HRP-conjugated anti-human Fab antibodies (Jackson ImmunoResearch, West Grove, PA) and Pierce Pico Supersignal ELISA substrate (ThermoFisher Scientific).

[3] = molecular target: T5, human CD3 delta-epsilon-Fc heterodimer (Acro Biosystems, Cat #CDD-H52WO) (human, UniProt P04234 22-105); assay: single-point ELISA; signal on huCD3DE-Fc over Fc
T5 construct: Bought; also called CD3DE-Fc; huCD3DE-Fc; not shown: Fc
T5 sequence (chain, as listed by the source mutant, chain 1 of 2): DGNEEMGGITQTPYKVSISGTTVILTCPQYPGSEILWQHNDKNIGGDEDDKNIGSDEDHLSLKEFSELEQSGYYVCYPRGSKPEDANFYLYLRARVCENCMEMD
T5 sequence (P04234 22-105, stated change not applied, chain 2 of 2): as the sequence (Q95LI8 22-105, stated change not applied, one chain of several) above, with V5I, K15N, V20I, T32S, N33D, N34I, A64T, N74S, L83V counted along it
Method: as §1

[4] = molecular target: T6, human CD3 epsilon (Acro Cat #CDE-H5223) (human, UniProt P07766 23-126); assay: SPR (Biacore), scFvFc captured, rhCD3E analyte
T6 construct: Bought recombinant protein; also called rhCD3E
T6 sequence (P07766 23-126 limits assumed): as the sequence (chain, as listed by the source mutant, chain 1 of 2) above
Method: Anti-Fab or anti-Fc polyclonal antibodies were immobilized onto a CM5 chip (GE Life Sciences) using amine coupling chemistry (from Amine Coupling Kit, GE Life Sciences). The immobilization steps were carried out at a flow rate of 25 μl/min in 1×HBS-EP+ buffer (GE Life Sciences; 10× Stock diluted before use). The sensor surfaces were activated for 7 min with a mixture of NHS (0.05 M) and EDC (0.2 M). The Anti-Fab or Anti-Fc antibodies were injected over all 4 flow cells at a concentration of 25 μg/mL in 10 mM sodium acetate, pH 4.5, for 7 min. Ethanolamine (1 M, pH 8.5) was injected for 7 min to block any remaining activated groups.
Off-rate and kinetic binding experiments were performed at 25° C. using 1×HBS-EP+ buffer. Test and control antibodies were injected over the anti-Fab or anti-Fc surface at concentrations of 5-10 μg/mL for 12 seconds at a flow rate of 10 μL/min on flow cells 2, 3 and 4, followed by a buffer wash for 30 seconds at the same flow rate. […] After capturing ligand (antibody) on the anti-Fc or anti-Fab surface, the analyte (human CD3 epsilon, Acro Cat #CDE-H5223) was bound for 180 seconds, followed by a 600 second dissociation phase at a flow rate of 50 μL/min. Between each ligand capture and analyte binding cycle, regeneration was carried out using two injections of 10 mM Glycine pH 2.0 for 30 seconds at 30 μL/min, followed by a 30 second buffer wash step.
The data was fit with the Biacore T200 Evaluation software, using a 1-1 Langmuir binding model. KD (affinity, nM) was determined as a ratio of the kinetic rate constants calculated from the fits of the association and dissociation phases.

[5] = molecular target: T3, human CD3 on T-cell lines …; assay: flow cytometry; signal on CD3+ Jurkat over CD3- Jurkat RT3-T3.5 cells
Method: A high-throughput primary screen was performed to rapidly assess cell binding of antibodies produced in small-scale (60 μL) cell-free reactions. In this screen, four components are combined in equal volumes to a final volume of 100 μL/well in a U-bottom 96-well plate (Greiner Cat #650201) or flat bottom 384 well plate (Greiner Cat #781201). […] Plates are then incubated on ice for one hour. Cells are pelleted by spinning at 1500×g for 5 minutes and resuspended in assay buffer. High-throughput flow cytometry is then performed on resuspended cells on a FACS instrument (BD Biosciences FACS Canto II or BD Biosciences LSR II) and data is analyzed with FlowJo software. Antibody binding is assessed by the proportional level of secondary antibody signal (presumably due to binding to our antibody of interest) on Jurkat CD3-positive cells compared to the signal on Jurkat RT3.T3.5 CD3-negative cells.

CD3-GE = assay: ELISA, coated antigen
cynomolgus CD3 epsilon = molecular target: T1, cynomolgus CD3 epsilon; assay: ELISA, coated antigen
[6] = molecular target: T6, human CD3 epsilon (Acro Cat #CDE-H5223); assay: ELISA, coated antigen
EpCAM on NCI-H1975 cells [7] = molecular target: T2, EpCAM on NCI-H1975 cells; assay: cell-based or functional assay
EpCAM on NCI-H1975 cells [8] = molecular target: T2, EpCAM on NCI-H1975 cells; assay: cell-based or functional assay; remark: listed apart in the source

Row | Binder | Bmax [1] | Kd [1] | cyCD3DE/Fc, ELISA S/N [2] | huCD3DE-Fc/Fc, ELISA S/N [3] | Kd [4] | koff [4] | FACS S/N (Jurkat/Jurkat RT3-T3.5 binding) [5] | other results
1 | B1 | 4540 | 0.16 nM | 62.1 | 55.1 | 1.23 nM | 0.000235 s⁻¹ | – | –
2 | B2 | 4800 | 1.7 nM | 19.3 | 14.7 | 0.367 nM | 3.27e-06 s⁻¹ | – | –
3 | B3 | 5900 | 0.12 nM | 28.9 | 21.2 | 0.712 nM | 0.000157 s⁻¹ | – | –
4 | B4 | – | – | – | – | – | – | 6.2 | EC50 (CD3-GE): 1110 nM; ELISA Bmax (RLU) (CD3-GE): 1.7e+06 RLU; EC50 (cynomolgus CD3 epsilon): 35.6 nM; ELISA Bmax (RLU) (cynomolgus CD3 epsilon): 1.57e+06 RLU; EC50 [6]: 28.9 nM; ELISA Bmax (RLU) [6]: 1.62e+06 RLU
5 | B5 | – | – | – | – | – | – | 1 | –
6 | B6 | – | – | – | – | – | – | 1 | –
7 | B7 | – | – | – | – | – | – | 0.9 | –
8 | B8 | – | – | – | – | – | – | – | EC50 (CD3-GE): 574 nM; ELISA Bmax (RLU) (CD3-GE): 3610 RLU; EC50 (cynomolgus CD3 epsilon): 352 nM; ELISA Bmax (RLU) (cynomolgus CD3 epsilon): 116000 RLU; EC50 [6]: 251 nM; ELISA Bmax (RLU) [6]: 123000 RLU
9 | B9 | – | – | – | – | – | – | – | T-cell mediated H1975 killing, EC50 (pM) Donor 1 (EpCAM on NCI-H1975 cells [7]): 8 pM; T-cell mediated H1975 killing, EC50 (pM) Donor 2 (EpCAM on NCI-H1975 cells [7]): 4 pM; Cell killing Donor #1 EC50 (pM) (EpCAM on NCI-H1975 cells [8]): 8.2 pM; Cell killing Donor #2 EC50 (pM) (EpCAM on NCI-H1975 cells [8]): 4.1 pM
